# The supplement of paper PMC10724198
# ± gives the standard deviation of the averaged measurements.
# Test system: Saccharomyces cerevisiae
# Assay: protein stability index of tFT-peptide fusion (C-terminal peptide) (PSI (0-1 scale)); higher = more stable (slower turnover)
# Conditions: genetic background: wild type; temperature: 30 C
# Experimental: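 Multiplexed protein stability (MPS) profiling in S. cerevisiae. Random 12-aa peptides (tFT-X12 library) are fused to the C-terminus of a sfGFP-mCherry tandem fluorescent timer, after mCherry and a GGGS linker. Cells are FACS-sorted into 8 mCherry/sfGFP bins and deep-sequenced. The protein stability index (PSI) is the read-weighted bin average, scaled from 0 (unstable) to 1 (stable). Only peptides with >10 reads are reported; cells were grown at 30 °C in SC-His with glucose.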
# 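Further: PSI is a weighted mean of sequencing reads over stability bins, variants kept only with over 10 reads, mCherry proximal and sfGFP distal, peptide attached via GGGS linker.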
row,Sequence,protein stability index
1,HVALPAFKQLSG,0.746 ± 0.051
2,KNGLERFTSNRS,0.641 ± 0.051
3,QPPSPHTLRADI,0.787 ± 0.0037
4,FFVGFASLRLVL,0.5517 ± 0.0046
5,PVPKAPPCNRRR,0.663 ± 0.0099
6,SPSFSLLFPFLL,0.657 ± 0.037
7,PPPLLSPLSPPP,0.571
8,GVCVLGGWSGFW,0.758 ± 0.062
9,GCVGGGDWRFNV,0.566 ± 0.027
10,RLFSSSCLPFPP,0.781 ± 0.16
11,AGGGGGTRVHWR,0.682 ± 0.013
12,CGGAQRREGGLG,0.649 ± 0.03
13,VMCECALLVQSR,0.563 ± 0.028
14,IGYSSIYKTTGT,0.668 ± 0.033
15,ASLFFSLCSLSE,0.694 ± 0.011
16,VGAGRGKGRGGG,0.617 ± 0.013
17,FFFPGLLVPLFP,0.727 ± 0.025
18,AWEWMTVQVVRG,0.586 ± 0.012
19,AALSNRGIHWWK,0.732 ± 0.018
20,RCCVPCWFMTLV,0.555 ± 0.021
21,LTLLFLHPFPST,0.753 ± 0.1
22,VPVAGSFVGIRF,0.6753 ± 0.004
23,PRGYSASPNLTS,0.716 ± 0.023
24,HHPKTCHHLSRA,0.6853 ± 0.0037
25,SPTRMSAFVRLD,0.739 ± 0.071

row,Sequence,protein stability index
1,LTAGGGEACGPP,0.625 ± 0.015
2,PPELHTIRARQI,0.58 ± 0.082
3,HCRDCLVLIQFN,0.664 ± 0.048
4,ADWGSRRPSRCP,0.68915 ± 0.00051
5,SGTRDELVFVAV,0.6755 ± 0.0061
6,LGACGWVDWWGL,0.774 ± 0.0083
7,PPPLDSPPPPPP,0.664 ± 0.019
8,FNEKNKKSTLER,0.652 ± 0.043
9,DRLPRHLPSLLP,0.715 ± 0.037
10,NCAPVPLSPADS,0.685 ± 0.032
11,CPPARLLPHPPA,0.733 ± 0.013
12,FRRARRLRWFGG,0.637 ± 0.03
13,PVGEEPRPRNVR,0.674 ± 0.063
14,KRDNKNKDKQKK,0.7 ± 0.024
15,LVCYHLSLPSVR,0.675 ± 0.052
16,RVVCFPAPLMPR,0.705 ± 0.05
17,AEAKAVKSVSVR,0.638 ± 0.042
18,LKKEFSGKEIQD,0.743 ± 0.049
19,SPLLLLPAPPPP,0.673 ± 0.014
20,PLGPSTQHPLSI,0.687 ± 0.025
21,FTPSSLRGSLLA,0.687 ± 0.021
22,LSCALCLLGFRC,0.647 ± 0.029
23,PHPPPSPGPSPP,0.707 ± 0.11
24,GGGGAVRAWGLR,0.736 ± 0.019
25,KVKGGELVRTLR,0.736 ± 0.021

row,Sequence,protein stability index
1,IAISAPSLLDTS,0.643 ± 0.026
2,DVVLVSPCGQMW,0.725 ± 0.21
3,GTGERHIASEEK,0.728 ± 0.013
4,PPPPPSAPSPLP,0.665 ± 0.05
5,KKRKKKRTEPQP,0.6421 ± 0.00099
6,SNIGFLLCSLFL,0.59078 ± 4.5e-05
7,GAPWPLAVVAGP,0.5995 ± 0.0013
8,EKYELHEVEKEI,0.597 ± 0.049
9,TKNTQNNGKDKK,0.734 ± 0.059
10,KKKKKKNKKTKN,0.711 ± 0.045
11,PPPAPQTATPHR,0.714 ± 0.022
12,KGIGWSSDGGMG,0.67 ± 0.02
13,RRAHATLPMNEF,0.616 ± 0.015
14,GKTVRERWATRP,0.651 ± 0.064
15,GKIGYQLGAVIN,0.709 ± 0.068
16,TLSPPPALASPL,0.71 ± 0.037
17,GGGRSASGGWGC,0.698 ± 0.024
18,APHPYPPTPPAP,0.725 ± 0.014
19,LHRTKHLRKGHK,0.6905 ± 0.0033
20,SPPPGPAPPMSP,0.731 ± 0.03
21,SYCRPPPLPGLP,0.628 ± 0.038
22,VIPSCMVFSSTG,0.71 ± 0.049
23,VPPLFALAPPAP,0.681 ± 0.029
24,IKKKKNKKENAE,0.725 ± 0.092
25,LPPPTPPPPLLP,0.779 ± 0.093

row,Sequence,protein stability index
1,WVCCVGAGFLVV,0.594 ± 0.03
2,AWMSRTRSKNLR,0.717 ± 0.048
3,SSRFNVAPGGCR,0.745 ± 0.11
4,SFSLSMFVTYSF,0.505 ± 0.03
5,GSGGSGLLLVEW,0.763 ± 0.02
6,AGGSVGEAGSEG,0.649 ± 0.026
7,GRSHYFLSILRI,0.5268 ± 0.0018
8,EYQGARAAGQSL,0.678 ± 0.02
9,PPFLTTYPHLAP,0.71 ± 0.031
10,LHPPLALPRPPP,0.711 ± 0.05
11,CCLNHIFECLTL,0.7012 ± 0.0066
12,GMPTANMYLLLQ,0.636 ± 0.017
13,VRSSLDGDGLCG,0.6869 ± 0.0046
14,RNKKKKEKKKVE,0.693 ± 0.038
15,AQFFQALATYPI,0.677 ± 0.022
16,NHHETRNDCSST,0.771 ± 0.12
17,QVRCCQEYSSEE,0.69 ± 0.026
18,GRNIIARLNNMT,0.5748 ± 0.0047
19,AGQGSISCWSKD,0.707 ± 0.045
20,PPPSPFLPSPFR,0.7066 ± 0.0061
21,QLRYVGRSISRM,0.659 ± 0.037
22,GKRKEKLEQTAQ,0.688 ± 0.027
23,VWSPGGGAFVGG,0.815 ± 0.047
24,RLKFCLSICLAP,0.7321 ± 0.003
25,VGPCGGVGHLGS,0.73 ± 0.036

row,Sequence,protein stability index
1,IVPFLLFYSPPA,0.719 ± 0.055
2,QGVGSHIPCGTP,0.64 ± 0.023
3,FLHPSPIPPPLP,0.7092 ± 0.0012
4,PPSPPPPYPAPP,0.679 ± 0.015
5,EKWMRYLARCDI,0.6882 ± 0.0012
6,KKLRNKKGKRYA,0.645 ± 0.086
7,VSTPSPPSDSTP,0.685 ± 0.051
8,PPTPSPAPSPAP,0.601 ± 0.011
9,HPPTSPGGLRQP,0.686 ± 0.0069
10,SLPPPPSQLRPL,0.726 ± 0.015
11,RGRWGVYISSWV,0.626 ± 0.048
12,RDPPLLQPTTSS,0.648 ± 0.018
13,VPWVFVYGEGVR,0.734 ± 0.024
14,GRRWKQHPGWVS,0.573 ± 0.051
15,RSIYEFVPIRYV,0.594 ± 0.028
16,GWWGCGASVCGV,0.72 ± 0.15
17,SPTALPPPPVPP,0.662 ± 0.041
18,LGQAVGAVGVEV,0.64 ± 0.072
19,WLWLGFNRVFFY,0.511 ± 0.033
20,VFVPCIFRQIAG,0.6096 ± 0.0019
21,GRRGWFESSIRR,0.731 ± 0.014
22,GPSREFGSNWII,0.612 ± 0.034
23,RAPPPPHPSSPP,0.744 ± 0.079
24,GKGGAEHADQVL,0.669 ± 0.099
25,ASCAPGDVTQVG,0.718 ± 0.038

row,Sequence,protein stability index
1,HAQRTSSRRAKS,0.711 ± 0.019
2,EWGKCGRGLYGC,0.666 ± 0.033
3,RFRDSGRWLSAE,0.765 ± 0.063
4,GRKGARESSNEI,0.667 ± 0.0075
5,PLLPSPAPLHPP,0.583 ± 0.044
6,IEITERRQKKIQ,0.699 ± 0.088
7,GVDPVGVLFCGA,0.656 ± 0.074
8,NSSPRFPTPDNP,0.6618 ± 0.00081
9,LSCFVFRLSWFL,0.556 ± 0.11
10,PSPLPMYPPPTF,0.693 ± 0.0083
11,EWCGSLVVWTGG,0.668 ± 0.018
12,LRPVPLCPAALL,0.695 ± 0.037
13,PSPRPSPPLPSP,0.647 ± 0.076
14,VEASRSCTKLDG,0.675 ± 0.02
15,SVPNYDAVGAGD,0.667 ± 0.097
16,SWGLGWIARRRT,0.684 ± 0.052
17,TEFFVFNRTQSL,0.671 ± 0.088
18,LDGLFWHRPCFK,0.734 ± 0.061
19,VVFISGVYCSRL,0.688 ± 0.1
20,TRREQYSSSNLV,0.674 ± 0.04
21,SLAVDVRVSWEI,0.704 ± 0.017
22,SGDVGVGHWVGG,0.692 ± 0.022
23,PTKLFDTRPRGA,0.679 ± 0.05
24,TSIFRIICLTDR,0.642 ± 0.022
25,KKQKKKKSTKRN,0.722 ± 0.038

row,Sequence,protein stability index
1,SVSGPAPPSMSS,0.618 ± 0.12
2,DSSPIESAVAPS,0.716 ± 0.023
3,CCLGVFFGVGGL,0.772 ± 0.12
4,WSSCISCLLRGV,0.688 ± 0.066
5,WGGGRGTAVVGV,0.657 ± 0.028
6,LSCLFYSYSVSS,0.607 ± 0.068
7,RPFYPLVRPRTR,0.798 ± 0.2
8,GPLNQALLHCSV,0.653 ± 0.021
9,VASPAPALRPPL,0.746 ± 0.093
10,VGRPGGVAQHRG,0.734 ± 0.077
11,DTDHSSNCELPG,0.696 ± 0.083
12,WHDLDRGSFRAV,0.669 ± 0.023
13,SGVRSPALLGRC,0.68 ± 0.042
14,VFYVGGGAVVRG,0.689 ± 0.023
15,PPPPLPATPGAS,0.6857 ± 0.0018
16,TPNLQPLPRNLD,0.765 ± 0.037
17,LFPGSHHLSRFF,0.7587 ± 0.005
18,PSLLFHPAPFFP,0.756 ± 0.085
19,KKRERNDKRGCQ,0.652 ± 0.024
20,VGYGTGGAVGVE,0.691 ± 0.041
21,LGFRCLGRGPDH,0.644 ± 0.033
22,GEKDGAVGRGEV,0.614 ± 0.02
23,PASPTLRPYWDP,0.645 ± 0.068
24,VLPSSSPPGLRC,0.6698 ± 0.0059
25,KKKNNRITVFKV,0.636 ± 0.067

row,Sequence,protein stability index
1,CCLSCGRPTLGS,0.731 ± 0.067
2,RVFVRFGSCAGG,0.679 ± 0.059
3,LFGNPVLSYFVI,0.5549 ± 0.0053
4,CFRTVPPPALTR,0.7199 ± 0.002
5,NLDFGYAERWQG,0.768 ± 0.06
6,EVRSDSFFKCEG,0.6606 ± 0.0046
7,GIYAWFSGWRKD,0.72 ± 0.015
8,VLGFGSVPAWIE,0.776 ± 0.048
9,GIKKNKIKKKKI,0.624 ± 0.054
10,SGSRFRTVRAPE,0.654 ± 0.032
11,RALGDGRLGQDT,0.682 ± 0.014
12,RAPVRPSEYTRP,0.681 ± 0.028
13,PRAGPLAALSLS,0.695 ± 0.026
14,EGGEWGSFGSAV,0.704 ± 0.0094
15,YSGFVVGASDTL,0.601 ± 0.18
16,VSRCHLLDLSLV,0.642 ± 0.024
17,SGSWRFYPSTTC,0.706 ± 0.056
18,FCPPMPSVIALH,0.649 ± 0.024
19,LESEDDRKLSLL,0.659 ± 0.011
20,DTGGGPQTSRWD,0.715 ± 0.17
21,RGARRHSPTARW,0.717 ± 0.037
